According to paper PMC6028548:

Tests used:
[1] = molecular target: Kif18b-GFP-His (full-length Kif18-GFP-6×His) (human); test: SEC-MALS; Superdex 200 10/300 GL, MiniDAWN detector; Kif18b-GFP-His at 0.3 mg/ml in gel filtration buffer (25 mM Hepes, pH 7.5, 150 mM NaCl, 300 mM KCl, 5 mM β-mercaptoethanol, 1 mM MgCl2, 1 mM Na-EGTA, 1 mM ATP)
[2] = molecular target: GMP-CPP–stabilized microtubules and dynamic microtubules grown from GMP-CPP seeds (TIRF assays) (UniProt P02550); test: single-molecule TIRF microscopy; rhodamine-labeled GMP-CPP microtubules held on the glass by anti–β-tubulin antibodies; 1–10 nM motor in BRB80 with 1 mM ATP, 0.5 mg/ml casein, oxygen scavengers; 37°C
[3] = molecular target: Kif18b-GFP-His (full-length Kif18-GFP-6×His) (human); test: single-molecule photobleaching (TIRF microscopy); Kif18b-GFP motors moving on GMP-CPP–stabilized microtubules; bleaching steps and intensities of GFP
Kif18b_(500–593) (human) = test: SEC-MALS; Superdex 200 10/300 GL, MiniDAWN detector; protein at 2 mg/ml

| Substance | stoichiometry N [1] | dwell time at the microtubule plus end [2] [s] | stoichiometry N [3] | stoichiometry N (Kif18b_(500–593) (human)) |
| --- | --- | --- | --- | --- |
| Kif18b-GFP-His (full-length Kif18-GFP-6×His) (natural protein) | 2 | 22.8 | 2 | – |
| Kif18b_(500–593) (domain or fragment) | – | – | – | 2 |
| Kif18bΔC-GFP-His (domain or fragment) | – | 8.5 | – | – |
